# Results published in patent US20240269194A1, “COMPOSITIONS AND METHODS FOR ISLET CELL TRANSPLANTS” (City of Hope, priority 2021, published 2024).
# Molecular target: T1, gastrin receptor CCKBR on human islets (human) (UniProt P32239)
# T1 sequence (looked up): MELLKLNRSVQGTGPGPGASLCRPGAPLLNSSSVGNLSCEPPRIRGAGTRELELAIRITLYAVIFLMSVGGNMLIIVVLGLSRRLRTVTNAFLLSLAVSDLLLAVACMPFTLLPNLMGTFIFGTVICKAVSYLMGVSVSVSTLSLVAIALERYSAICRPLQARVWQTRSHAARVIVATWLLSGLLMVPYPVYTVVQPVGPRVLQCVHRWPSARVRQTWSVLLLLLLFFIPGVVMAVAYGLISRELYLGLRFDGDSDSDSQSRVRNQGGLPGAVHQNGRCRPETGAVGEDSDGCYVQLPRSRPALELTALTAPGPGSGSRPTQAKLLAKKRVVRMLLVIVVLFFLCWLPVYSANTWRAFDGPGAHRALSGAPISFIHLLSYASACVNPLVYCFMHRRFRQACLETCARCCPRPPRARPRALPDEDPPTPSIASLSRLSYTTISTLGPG
# Assay: cell-based or functional assay
substance,measurement,value
gastrin analogue [Leu^15] Gastrin-17 (GAST-17) (peptide),"glucagon mRNA (qPCR) in human islets from donors with high HbA1c, 100 nM gastrin",1.8 fold
same,"insulin mRNA (qPCR) in human islets from donors with high HbA1c, 100 nM gastrin",> 2 fold
same,"somatostatin mRNA (qPCR) in human islets from donors with high HbA1c, 100 nM gastrin",2.5 fold
